Test system: peptide library, one residue held at a place counted from the Y acceptor
Test: relative phosphorylation of the sub-library (ratio to the mean residue at this position); higher = residue favoured
In short: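 Biotinylated Tyr-centred peptide library mixtures, each fixing one residue at one position from −5 to +5, were incubated with purified recombinant kinases in 384-well plates for 90 min with 50 μM ATP plus γ-32P-ATP. Streptavidin membranes captured the peptides, which were rinsed and quantified by phosphorimaging and ImageQuant. At each position, intensities were divided by the sum of the 18 randomized residues (16 for the Ser/Thr-free library) and multiplied by that number. Each value is phosphorylation relative to the mean randomized residue.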

Chain of ABL2, construct: aa38-end, human (P42684 38-1182, looked up): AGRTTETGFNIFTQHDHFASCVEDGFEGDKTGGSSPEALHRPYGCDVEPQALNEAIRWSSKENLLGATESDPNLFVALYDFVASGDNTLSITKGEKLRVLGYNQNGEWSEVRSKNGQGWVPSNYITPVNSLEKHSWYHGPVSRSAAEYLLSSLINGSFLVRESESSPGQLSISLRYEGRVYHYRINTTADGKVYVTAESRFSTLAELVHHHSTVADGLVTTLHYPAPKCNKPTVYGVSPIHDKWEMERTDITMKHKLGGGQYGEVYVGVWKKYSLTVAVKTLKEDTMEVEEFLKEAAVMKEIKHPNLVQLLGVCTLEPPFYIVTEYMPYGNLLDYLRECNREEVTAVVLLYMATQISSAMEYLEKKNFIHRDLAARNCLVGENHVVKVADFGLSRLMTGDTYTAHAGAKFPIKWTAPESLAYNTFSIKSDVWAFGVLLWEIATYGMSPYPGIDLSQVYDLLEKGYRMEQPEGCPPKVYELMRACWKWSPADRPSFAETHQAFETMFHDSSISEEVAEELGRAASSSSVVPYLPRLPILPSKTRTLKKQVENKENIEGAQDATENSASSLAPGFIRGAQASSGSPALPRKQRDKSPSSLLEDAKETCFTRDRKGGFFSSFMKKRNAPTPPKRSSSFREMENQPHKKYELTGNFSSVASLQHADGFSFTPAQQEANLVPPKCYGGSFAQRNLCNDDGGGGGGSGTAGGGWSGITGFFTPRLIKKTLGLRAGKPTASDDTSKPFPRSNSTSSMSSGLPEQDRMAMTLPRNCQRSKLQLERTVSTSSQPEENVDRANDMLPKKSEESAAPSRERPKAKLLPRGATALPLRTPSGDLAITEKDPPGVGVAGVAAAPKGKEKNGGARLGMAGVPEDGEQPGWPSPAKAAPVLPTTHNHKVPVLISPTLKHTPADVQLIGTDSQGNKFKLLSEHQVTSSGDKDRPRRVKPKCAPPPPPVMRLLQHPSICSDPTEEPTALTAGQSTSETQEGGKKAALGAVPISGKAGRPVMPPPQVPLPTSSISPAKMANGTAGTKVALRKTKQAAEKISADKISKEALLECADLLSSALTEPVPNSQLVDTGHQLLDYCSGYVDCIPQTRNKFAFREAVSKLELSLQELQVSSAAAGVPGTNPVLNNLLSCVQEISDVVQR

ABL2, construct: aa38-end, human (from UniProt P42684)
relative phosphorylation
Settings	at +1	at +2	at +3	at +4	at +5	at -1	at -2	at -3	at -4	at -5
A fixed	2.85	1.32	0.871	0.935	1.01	0.717	1.18	1.04	1.16	1.1
D fixed	0.701	0.534	0.245	0.662	0.681	1.01	1.01	1.23	1.32	1.07
E fixed	0.884	1.2	0.199	0.735	0.686	1.45	1.38	1.88	1.69	1.13
F fixed	1.07	0.802	1.21	1.18	0.822	0.756	0.548	0.786	0.675	0.828
G fixed	1.26	0.647	1.23	1.2	1.27	0.49	1.24	1.15	1.33	1.29
H fixed	1.06	0.833	0.868	1.13	1.02	1.62	0.933	1.02	0.859	1.12
I fixed	0.517	0.843	1.46	0.736	0.781	2.9	0.867	0.598	0.774	0.716
K fixed	0.636	0.836	0.439	1.2	1.15	0.425	0.846	0.785	0.926	1.01
L fixed	0.857	0.904	1.47	0.813	0.85	1.55	0.885	0.758	0.87	0.831
M fixed	1.18	0.923	0.861	1.04	1.05	1.05	0.742	0.852	0.907	0.909
N fixed	0.492	1.06	0.756	0.988	1.02	0.674	1.11	1.25	0.871	1.27
P fixed	0.161	1.14	2.59	0.968	1.57	0.556	1.36	1.26	1.34	1.24
Q fixed	1.33	0.97	0.472	1.14	0.969	0.856	1.21	0.957	1.21	1.08
R fixed	1.03	1.27	0.684	1.43	1.4	0.451	0.896	0.883	1.07	1.18
S fixed	1.16	1.24	1.18	0.997	1.13	0.495	1.18	1.12	0.812	0.966
T fixed	0.802	1.42	1.09	0.919	1.11	1.03	1.05	1.11	0.74	0.923
V fixed	0.938	1.33	0.988	0.872	0.79	1.54	1.13	0.771	0.828	0.84
W fixed	1.05	0.737	1.39	1.04	0.69	0.421	0.422	0.552	0.623	0.506
pThr fixed	0.853	1.01	0.2	0.405	0.454	0.971	1.03	1.36	1.07	1.06
pTyr fixed	1.61	1.79	0.391	0.696	0.52	3.96	1.26	1.9	1.49	1.26
